The assay has as its target recombinant protein A/G (Pierce). As to the kind of experiment: plasmonic metamaterial refractive-index sensing (resonance wavelength shift, reflection probe); protein A/G (500 ug/mL in PBS, 45 min) physisorbed on gold nanodiscs of the sensor, washed 30 min with PBS; IgG 50 ug/mL applied in a microfluidic cell, plateau after 45 min, washed 30 min with …; reflection read at 1 min intervals.

Turning to “antimouse IgG (labeled with FITC) produced in goat (F5262, Sigma-Aldrich) (antibody)”, the resonance wavelength shift was 2 nm.

Source of the values: article PMC11212022.
